Source: the supplement of paper PMC9170038

Tested on: MS2 coat protein
Experiment: apparent KD of MS2 coat protein; designed switch direction (-1 OFF switch, 1 ON switch): -1; higher = weaker reporter binding
Procedure, shortened: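 SNAP-549-labelled MS2 coat protein was titrated, doubling from 0.7 or 1.5 nM to 3 µM, over designed RNA switches transcribed on Illumina chips by stalled E. coli RNA polymerase. Runs were done without input, with 200 uM small-molecule ligand, or with an oligonucleotide input. Apparent KD is the per-design median over clusters of curve-fitted normalised fluorescence.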

[1] = input ligand: microRNA oligo, concentration not stated
[2] = Eterna round: R95, input ligand: microRNA oligo, concentration not stated
[3] = Eterna round: R95, input ligand: FMN 200 uM
[4] = Eterna round: R95, input ligand: none

## GUUCCACAUGAGGAUCACCCAUGUGAGGAUAUGGUUUCGCUGGCCGUAGCCAGUGGAACCAGAAGGCGCGUGAU [Mat - Exclusion 1 - JL Mod - D19] (Eterna round: R97, puzzle: Exclusion 1)
Input ligand: FMN 200 uM
  apparent KD of MS2 coat protein: 80.8 nM
Input ligand: none
  apparent KD of MS2 coat protein: 67.3 nM

## GUUCUGACAGGAUAUACAUGAGGAUCACCCAUGUGCCCUUGGAGAUGCAAAGCAUCUCGUAGAAGGGUCUGAAC [Omei Ex3 Model Bachelor's Dilema v29] (Eterna round: R97, puzzle: Exclusion 3)
Input ligand: FMN 200 uM
  apparent KD of MS2 coat protein: 34 nM
Input ligand: none
  apparent KD of MS2 coat protein: 37.2 nM

## GUUGGGUGAUGAUACAUGAGGAUCACCCAUGUUAAAAGUCAUUAGGAUAUCCCGACGGCCGGUUAGGAGAAGGAGUGACCAGGC [Maonma] (Eterna round: R96, puzzle: Exclusion NG 3)
Input ligand: FMN 200 uM
  apparent KD of MS2 coat protein: 636 nM
[1]
  apparent KD of MS2 coat protein: 285 nM
Input ligand: none
  apparent KD of MS2 coat protein: 429 nM

## GUUGUGCGAGGAUAUAUGUGAGGUUUGCCUCAACAGGUAAUACAUGAGGAUCACCCAUGUAGAAGGCGCAUGAG [S1-(23.6);S2-(22.1) [87C]] (Eterna round: R96, puzzle: Exclusion 2)
Input ligand: FMN 200 uM
  apparent KD of MS2 coat protein: 248 nM
[1]
  apparent KD of MS2 coat protein: 45 nM
Input ligand: none
  apparent KD of MS2 coat protein: 63.9 nM

## GUUGUUUAUGUAGGAUAUGCCUGGCGUGCCUUUGCAGAAGGACAUGAGGAUCACCCAUGUAACAUGAGGCUCACCCAUGUCGCA [salish99_ExNG1_r04_109] (Eterna round: R96, puzzle: Exclusion NG 1)
Input ligand: FMN 200 uM
  apparent KD of MS2 coat protein: 758 nM
[1]
  apparent KD of MS2 coat protein: 244 nM
Input ligand: none
  apparent KD of MS2 coat protein: 599 nM

## GUUGUUUAUGUAGGAUAUGCCUGGCGUGCCUUUGCAGAAGGACAUGAGGAUCACCCAUGUAUUGCGGUCUGCGUUCAGAUCGCG [salish99_ExNG1_r4_040] (Eterna round: R96, puzzle: Exclusion NG 1)
Input ligand: FMN 200 uM
  apparent KD of MS2 coat protein: 58.3 nM
[1]
  apparent KD of MS2 coat protein: 27.8 nM
Input ligand: none
  apparent KD of MS2 coat protein: 30 nM

## GUUUACAAGCUAAGAUCCUACAUGAGGAUCACCCAUGUGGUCCGGUGACGUGAGUCACCGGACUUAGCUCGUCUUGU [salish99_S_TOV1_R5_001] (Eterna round: R97, puzzle: Sensor, turn-off variant 1)
Input ligand: FMN 200 uM
  apparent KD of MS2 coat protein: 86.8 nM
Input ligand: none
  apparent KD of MS2 coat protein: 90.4 nM

## GUUUAGUGAGGAUAUGUGGCUUCGAUCGUGCGAGGGAGGCUACAGAAGGCACAUGAGGAUCACCCAUGUUCCUC [salish99_ex4_r4_303] (Eterna round: R97, puzzle: Exclusion 4)
Input ligand: FMN 200 uM
  apparent KD of MS2 coat protein: 655 nM
Input ligand: none
  apparent KD of MS2 coat protein: 42.5 nM

## GUUUCACAUGAGGAUCACCCAUGUGAGGAUAUGGAUUCGAUAGAAGUAGAAGAUGGAUCCAGAAGGCGCGUGAC [JR_Ex1_Sub078] (Eterna round: R97, puzzle: Exclusion 1)
Input ligand: FMN 200 uM
  apparent KD of MS2 coat protein: 35.3 nM
Input ligand: none
  apparent KD of MS2 coat protein: 36.4 nM

## GUUUUCAGACGGAGAUCCUACAUGAGGAUCACCCAUGUCUCACAAGCUUUUUGCUCGUCUUAUACUCCUCUGUUCUC [Elimod 42 - Jieux - Sensor, turn-off variant 1] (Eterna round: R97, puzzle: Sensor, turn-off variant 1)
Input ligand: FMN 200 uM
  apparent KD of MS2 coat protein: 83.5 nM
Input ligand: none
  apparent KD of MS2 coat protein: 106 nM

## GUUUUCAGACGGAGAUCCUACAUGAGGAUCACCCAUGUCUCUCUUGCUAAUUGCUCGUCUUUUUCUCCUCUGUUCUC [Elimod 36 - Jieux - Sensor, turn-off variant 1] (Eterna round: R97, puzzle: Sensor, turn-off variant 1)
Input ligand: FMN 200 uM
  apparent KD of MS2 coat protein: 81.2 nM
Input ligand: none
  apparent KD of MS2 coat protein: 95.8 nM

## GUUUUGAGACGGAGAUCCGACAUGAGGAUCACCCAUGUCUCGCAAGCUUUUUGCUCGUCUUAUACUCCUCUGUUCUC [Elimod 45 - Jieux - Sensor, turn-off variant 1] (Eterna round: R97, puzzle: Sensor, turn-off variant 1)
Input ligand: FMN 200 uM
  apparent KD of MS2 coat protein: 17.8 nM
Input ligand: none
  apparent KD of MS2 coat protein: 17.1 nM

## GUUUUGAUAGGAUAUACAUGAGGAUCACCCAUGUCCCACCCGUUACCUCUGACCCUAUGUAGAAGGAUCGUUUA [Exy#15] (Eterna round: R97, puzzle: Exclusion 3)
Input ligand: FMN 200 uM
  apparent KD of MS2 coat protein: 27.5 nM
Input ligand: none
  apparent KD of MS2 coat protein: 37.2 nM

## UAAAAGAUGGACGAACCACAUGAGGAUCACCCAUGUCGAGGUUAGGAUAUGUCGUCCAUGGGACCACAGAAGGGACUGAAGACU [Teraqu] (Eterna round: R96, puzzle: Exclusion NG 3)
Input ligand: FMN 200 uM
  apparent KD of MS2 coat protein: 16 nM
[1]
  apparent KD of MS2 coat protein: 11.3 nM
Input ligand: none
  apparent KD of MS2 coat protein: 20.2 nM

## UAAAAGCGAGGAUAUACAUGAGGAUCACCCAUGUGGGCAAAGUUCGCUAAGGUACCUAGUAGAAGGCGCGAAAU [Digeanin] (Eterna round: R97, puzzle: Exclusion 3)
Input ligand: FMN 200 uM
  apparent KD of MS2 coat protein: 450 nM
Input ligand: none
  apparent KD of MS2 coat protein: 63.3 nM

## UAAAAGGAAGGAUAUACACUUCAAAACCUCAUGUGACUUUCACAUGAGGAUCACCCAUGUAGAAGGUCCAAGGC [Letior] (puzzle: Exclusion 2)
[2]
  apparent KD of MS2 coat protein: 21.5 nM

## UAAAAGUCAGGAUAUGCGAGAGAUUGAAGUGUGGCAAGGUAGCAGAAGGGACAUGAGGAUCACCCAUGUGUGGC [JR_Exclu4_Sub096] (puzzle: Exclusion 4)
[2]
  apparent KD of MS2 coat protein: 49 nM

## UAAAAGUUAGGAUAUACAUGAGGAUCACCCAUGUCGCGGAACCGCGGCGAUUACUCCUGUAGAAGGAACAUCGU [Ribeat] (puzzle: Exclusion 3)
[2]
  apparent KD of MS2 coat protein: 125 nM

## UAAAAUAGUGUGAGGAUAUGCUGGUCCUUGGAUCAGCAGAAGGCACAUGAGGAUCACCCAUGUAAAUAAUAAUA [Mat - Exclusion 4 - JL Mod - D27] (puzzle: Brourd's mod of Exclusion 4)
[3]
  apparent KD of MS2 coat protein: 184 nM
[2]
  apparent KD of MS2 coat protein: 54.6 nM
[4]
  apparent KD of MS2 coat protein: 67.1 nM

## UAAAGACAUGAGGAUCACCCAUGUAAGGAUAUCGCCUGCGGUGGCGCCAGCCAUUAGGCGAGAAGGUGCGGUGA [Eternabot (L1) Solution 14] (Eterna round: R97, puzzle: Exclusion 1)
Input ligand: FMN 200 uM
  apparent KD of MS2 coat protein: 326 nM
Input ligand: none
  apparent KD of MS2 coat protein: 417 nM

## UAAAGUAUAUAGGAUAUCUAGCUGGUAACAGCUAGAGAAGGAUGUACAUGAGGAUCACCCAUGUAAAUCAGUGA [Ex6/14-A2] (Eterna round: R97, puzzle: Exclusion 6)
Input ligand: FMN 200 uM
  apparent KD of MS2 coat protein: 23.3 nM
Input ligand: none
  apparent KD of MS2 coat protein: 17.9 nM

## UAAAUAAAUGUAGGAUAUCUGCACGUUUAGUGCAGAGAAGGACAUGAGGAUCACCCAUGUAUAGUAGCUUCGGCUACAAAUAAU [ENG1-C2] (Eterna round: R96, puzzle: Exclusion NG 1)
Input ligand: FMN 200 uM
  apparent KD of MS2 coat protein: 115 nM
[1]
  apparent KD of MS2 coat protein: 42.2 nM
Input ligand: none
  apparent KD of MS2 coat protein: 76.3 nM

## UAAAUAAGUGUGAGGAUAUGCUGGUCCUUGGAUCAGCAGAAGGCACAUGAGGAUCACCCAUGUAAUAUAUUUAU [Mat - Exclusion 4 - JL Mod - D61] (puzzle: Brourd's mod of Exclusion 4)
[2]
  apparent KD of MS2 coat protein: 68.1 nM

## UAAAUGGUGUCAGGAUAUCCUGCAUAGUCUGCUGGAGAAGGGACAUGAGGAUCACCCAUGUAAGCCGGCAUGACUGAAUUCCUC [Atrice] (Eterna round: R96, puzzle: Exclusion NG 1)
Input ligand: FMN 200 uM
  apparent KD of MS2 coat protein: 50.7 nM
[1]
  apparent KD of MS2 coat protein: 23.3 nM
Input ligand: none
  apparent KD of MS2 coat protein: 32.2 nM

## UAAAUGUCAGGAUAUUGUUAAUUUAGUUGUUUGUAUUAGUUCGAGAAGGGACAUGAGGAUCACCCAUGUUAAAA [Ex4 #52] (Eterna round: R97, puzzle: Exclusion 4)
Input ligand: FMN 200 uM
  apparent KD of MS2 coat protein: 37.6 nM
Input ligand: none
  apparent KD of MS2 coat protein: 31 nM

## UAAAUGUGAGGAUAUCAGGUGUGCUAGCGAACUGGUACAUCUGAGAAGGCACAUGAGGAUCACCCAUGUUCCUU [Mat - Exclusion 4 - Mod of JL - D50] (puzzle: Exclusion 4)
[2]
  apparent KD of MS2 coat protein: 16.2 nM

## UAAAUGUGAGGAUAUUCGAAGAACACGGAGACGUGUUUUUCGGAGAAGGCACAUGAGGAUCACCCAUGUUCCUU [Mat - Exclusion 4 - JL Mod - D6] (Eterna round: R97, puzzle: Exclusion 4)
Input ligand: FMN 200 uM
  apparent KD of MS2 coat protein: 241 nM
Input ligand: none
  apparent KD of MS2 coat protein: 29.8 nM

## UAACAUGUAGAAGGAUAUCUGCACGUUUAGUGCAGAGAAGGUCUAACAUGAGGAUCACCCAUGUAGAUCAUUAAUUAAUUAAUU [ENG1/8-B2] (Eterna round: R96, puzzle: Exclusion NG 1)
Input ligand: FMN 200 uM
  apparent KD of MS2 coat protein: 15.8 nM
[1]
  apparent KD of MS2 coat protein: 9.45 nM
Input ligand: none
  apparent KD of MS2 coat protein: 12.9 nM

## UAACCUCGCGUCAGGAUAUGUGAGGACUGUGACGCACAGAAGGGACAUGAGGAUCACCCAUGUGAAAGAAAUAA [Erlacema] (puzzle: Brourd's mod of Exclusion 4)
[2]
  apparent KD of MS2 coat protein: 22.2 nM

## UAACUUCUUGUAAGGAUAUCGGUCCCAAGGGACAACGAGAAGGUACAUGAGGAUCACCCAUGUGAAAUAAGAAU [Zala] (puzzle: Brourd's mod of Exclusion 4)
[3]
  apparent KD of MS2 coat protein: 66.6 nM
[2]
  apparent KD of MS2 coat protein: 22.7 nM
[4]
  apparent KD of MS2 coat protein: 19.8 nM

## UAAGAAUACUGAGGAUAUGCUAGUUUAUCUCAGGCAGAAGGCGGACUCAACAUGAGGAUCACCCAUGUAAGACGGGUACUAGAU [Ex NG1 #14] (Eterna round: R96, puzzle: Exclusion NG 1)
Input ligand: FMN 200 uM
  apparent KD of MS2 coat protein: 131 nM
[1]
  apparent KD of MS2 coat protein: 92.2 nM
Input ligand: none
  apparent KD of MS2 coat protein: 89 nM
